How the values were obtained:
His-tagged GFP nanobody = assay: BLI
[1] = molecular target: GFP polybody (His-tagged GFP nanobody-TMS reconstituted in peptidisc); assay: BLI

## His-tagged GFP (green fluorescent protein) (from UniProt P42212 1-238) (natural protein)
His-tagged GFP nanobody
  Kd: 0.75 nM
[1]
  Kd: 2.72 nM
